Consider four molecules from patent US20050261190A1 (SK, published 2005).

The target of assay [1] is T1, polyubiquitin chains (Ub2-7), synthetic Lys48-linked (UniProt P0CG47 1-76, units linked by Lys48 isopeptide bonds).
T1 construct: A mixture of chains of 2 to 7 ubiquitin units; also called multiubiquitin chains
The assay is described as follows: GST pull-down, immunoblot with anti-ubiquitin. A general note: A western blot detects proteins with antibodies after separation by electrophoresis.

Assay [2] addresses T2, heat shock protein 70 cognate (Hsc70), endogenous (human, UniProt P11142 2-646).
T2 construct: In the 1D western blots it is detected together with Hsp70 by one anti-Hsc70/Hsp70 monoclonal antibody; statements on 'Hsc70/Hsp70' are written once for each of the two; also called member of Hsc70/Hsp70
The assay is described as follows: co-immunoprecipitation with anti-Flag M2 agarose from HEK293T lysate, 2D gel, MALDI-TOF MS (table of Flag-hFAF1 binding proteins).
From the text: Protein spots detected in the autoradiogram were cut out from the corresponding silver stained gel and subjected to in-gel digestion with trypsin and mass peptide fingerprint analyses using MALDI-TOF MS.

Assay [3] addresses heat shock protein 70 inducible (Hsp70), endogenous (human, UniProt P0DMV8 2-641). Put plainly: cell-based or functional assay.
Assay [4] deals with bacterial Hsp70, DnaK (E. coli, UniProt P0A6Y8 2-638). The assay is described as follows: not told (data not shown).
Sequence of bacterial Hsp70, DnaK (P0A6Y8 2-638 limits assumed): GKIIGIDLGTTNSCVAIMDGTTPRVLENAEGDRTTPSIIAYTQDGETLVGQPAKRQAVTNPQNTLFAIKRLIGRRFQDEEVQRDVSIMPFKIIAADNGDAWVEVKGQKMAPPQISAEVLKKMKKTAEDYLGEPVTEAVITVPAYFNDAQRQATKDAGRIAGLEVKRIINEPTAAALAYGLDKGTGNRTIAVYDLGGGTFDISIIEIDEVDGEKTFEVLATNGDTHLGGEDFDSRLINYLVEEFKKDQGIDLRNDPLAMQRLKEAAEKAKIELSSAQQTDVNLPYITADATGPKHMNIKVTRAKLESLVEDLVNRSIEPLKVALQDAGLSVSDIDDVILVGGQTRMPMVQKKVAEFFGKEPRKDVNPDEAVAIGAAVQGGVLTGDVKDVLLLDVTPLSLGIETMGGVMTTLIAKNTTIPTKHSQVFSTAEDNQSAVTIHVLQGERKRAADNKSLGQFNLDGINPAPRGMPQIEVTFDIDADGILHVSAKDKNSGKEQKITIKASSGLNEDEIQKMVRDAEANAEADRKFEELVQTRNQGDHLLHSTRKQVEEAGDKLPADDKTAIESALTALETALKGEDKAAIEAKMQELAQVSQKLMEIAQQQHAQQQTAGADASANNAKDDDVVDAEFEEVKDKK

Sequence of heat shock protein 70 inducible (Hsp70), endogenous (P0DMV8 2-641): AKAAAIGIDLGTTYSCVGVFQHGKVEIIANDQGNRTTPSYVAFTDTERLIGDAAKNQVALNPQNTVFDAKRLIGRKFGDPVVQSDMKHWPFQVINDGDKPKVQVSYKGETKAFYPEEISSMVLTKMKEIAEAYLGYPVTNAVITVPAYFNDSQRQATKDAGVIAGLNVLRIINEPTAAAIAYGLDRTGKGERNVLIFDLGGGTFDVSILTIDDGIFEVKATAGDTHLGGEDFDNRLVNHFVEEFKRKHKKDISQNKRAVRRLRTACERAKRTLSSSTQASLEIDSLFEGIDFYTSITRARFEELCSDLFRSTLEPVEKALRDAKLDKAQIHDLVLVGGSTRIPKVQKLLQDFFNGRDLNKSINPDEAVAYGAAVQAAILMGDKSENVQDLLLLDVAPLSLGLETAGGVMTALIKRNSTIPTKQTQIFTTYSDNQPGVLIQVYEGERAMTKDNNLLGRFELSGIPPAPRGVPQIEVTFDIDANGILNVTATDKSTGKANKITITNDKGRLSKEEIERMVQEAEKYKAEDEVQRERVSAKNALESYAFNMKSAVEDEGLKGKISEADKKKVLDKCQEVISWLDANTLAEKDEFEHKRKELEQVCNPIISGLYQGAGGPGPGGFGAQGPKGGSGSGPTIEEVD
T2 sequence (P11142 2-646 limits assumed): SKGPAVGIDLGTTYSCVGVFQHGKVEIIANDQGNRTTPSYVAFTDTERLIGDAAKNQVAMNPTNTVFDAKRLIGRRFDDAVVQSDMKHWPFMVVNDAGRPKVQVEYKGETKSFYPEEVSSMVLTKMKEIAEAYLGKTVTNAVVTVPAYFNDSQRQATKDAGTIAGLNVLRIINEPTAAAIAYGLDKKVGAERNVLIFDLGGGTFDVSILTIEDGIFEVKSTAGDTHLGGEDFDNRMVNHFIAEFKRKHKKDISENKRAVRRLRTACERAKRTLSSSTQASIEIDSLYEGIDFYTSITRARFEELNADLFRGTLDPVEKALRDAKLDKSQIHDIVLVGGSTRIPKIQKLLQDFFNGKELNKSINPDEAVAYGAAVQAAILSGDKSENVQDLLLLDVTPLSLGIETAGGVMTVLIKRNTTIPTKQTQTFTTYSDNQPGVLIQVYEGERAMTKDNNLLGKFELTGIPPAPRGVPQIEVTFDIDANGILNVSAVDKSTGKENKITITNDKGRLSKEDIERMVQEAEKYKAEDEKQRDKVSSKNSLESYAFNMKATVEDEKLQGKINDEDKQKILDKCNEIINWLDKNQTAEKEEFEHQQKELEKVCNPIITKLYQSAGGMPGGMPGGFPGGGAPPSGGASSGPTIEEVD

B1: GST-hFAF1[82-650] (other)
chain: SAFRPVMPSRQIVERQPRMLDFRVEYRDRNVDVVLEDTCTVGEIKQILENELQIPVSKMLLKGWKTGDVEDSTVLKSLHLPKNNSLYVLTPDLPPPSSSSHAGALQESLNQNFMLIITHREVQREYNLNFSGSSTIQEVKRNVYDLTSIPVRHQLWEGWPTSATDDSMCLAESGLSYPCHRLTVGRRSSPAQTREQSEEQITDVHMVSDSDGDDFEDATEFGVDDGEVFGMASSALRKSPMMPENAENEGDALLQFTAEFSSRYGDCHPVFFIGSLEAAFQEAFYVKARDRKLLAIYLHHDESVLTNVFCSQMLCAESIVSYLSQNFITWAWDLTKDSNRARFLTMCNRHFGSVVAQTIRTQKTDQKPLFLIIMGKRSSNEVLNVIQGNTTVDELMMRLMAAMEIFTAQQQEDIKDGDEREARENVKREQDEAYRLSLEADRAKREAREREMAEQFRLEQIRKEQEEEREAIRLSLEQALPPEPKEENAEPVSKLRIRTPSGEFLERRFLASNKLQIVFDFVASKGFPWDEYKLLSTFPRRDVTQLDPNKSLLEVKLFPQETLFLEAKE
notes: Immobilized on glutathione sepharose; also called amino acid 82-650; not shown: glutathione S-transferase (GST) tag
Regarding B1, the binding result in assay [1] is recorded as “no binding”.

B2: Flag-tagged hFAF1 (human Fas associated factor 1, full form) (other)
chain: MASNMDREMILADFQACTGIENIDEAITLLEQNNWDLVAAINGVIPQENGILQSEYGGETIPGPAFNPASHPASAPTSSSSSAFRPVMPSRQIVERQPRMLDFRVEYRDRNVDVVLEDTCTVGEIKQILENELQIPVSKMLLKGWKTGDVEDSTVLKSLHLPKNNSLYVLTPDLPPPSSSSHAGALQESLNQNFMLIITHREVQREYNLNFSGSSTIQEVKRNVYDLTSIPVRHQLWEGWPTSATDDSMCLAESGLSYPCHRLTVGRRSSPAQTREQSEEQITDVHMVSDSDGDDFEDATEFGVDDGEVFGMASSALRKSPMMPENAENEGDALLQFTAEFSSRYGDCHPVFFIGSLEAAFQEAFYVKARDRKLLAIYLHHDESVLTNVFCSQMLCAESIVSYLSQNFITWAWDLTKDSNRARFLTMCNRHFGSVVAQTIRTQKTDQKPLFLIIMGKRSSNEVLNVIQGNTTVDELMMRLMAAMEIFTAQQQEDIKDGDEREARENVKREQDEAYRLSLEADRAKREAREREMAEQFRLEQIRKEQEEEREAIRLSLEQALPPEPKEENAEPVSKLRIRTPSGEFLERRFLASNKLQIVFDFVASKGFPWDEYKLLSTFPRRDVTQLDPNKSLLEVKLFPQETLFLEAKE
notes: Transiently overexpressed in HEK293T cells and pulled out of the lysate with anti-Flag M2 agarose; also called Flag-hFAF1; pFlag-CMV-2/hFAF1; not shown: Flag tag from the pFlag-CMV-2 vector
B2: in assay [2], the binding result is recorded as “binds”. Moreover, the “SAPK/JNK activity after heat shock” value in assay [3] came to 16 fold.

B3: purified recombinant hFAF1 (other)
chain: B2 chain
notes: also called hFAF1 cleaved by thrombin from GST-hFAF1
As for B3, in assay [4], the binding result is on record as “binds”.

B4: Flag-hFAF1[366-650] (other, not shown: small tags and cut ends)
chain: YVKARDRKLLAIYLHHDESVLTNVFCSQMLCAESIVSYLSQNFITWAWDLTKDSNRARFLTMCNRHFGSVVAQTIRTQKTDQKPLFLIIMGKRSSNEVLNVIQGNTTVDELMMRLMAAMEIFTAQQQEDIKDGDEREARENVKREQDEAYRLSLEADRAKREAREREMAEQFRLEQIRKEQEEEREAIRLSLEQALPPEPKEENAEPVSKLRIRTPSGEFLERRFLASNKLQIVFDFVASKGFPWDEYKLLSTFPRRDVTQLDPNKSLLEVKLFPQETLFLEAKE
With B4, the “SAPK/JNK activity after heat shock” value in assay [3] was found to be 13 fold.
